The assay deals with full-length E. coli ClpX (E. coli) (UniProt P0A6H1).

Take FITC-casein: the rate of ClpP degradation of FITC-casein (50 µM, 30 °C) supported by full-length ∆NPS ClpX against wild-type ClpX (against ~10-fold for ∆NPS ClpX^∆N over ClpX^∆N) stood at 2 fold.

For the origin of these results see article PMC10638403.
